Results published in patent US20150191543A1 (University of California, published 2015).

Key:
[1] = molecular target: T1, soluble CD8αβ heterodimer fusion protein (mouse, UniProt P01731 28-151; P10300 22-138); assay: SPR, Biacore 3000; minibody captured by goat anti-mouse IgG Fc, sCD8αβ as analyte at 0-100 nM
Protocol: FIG. 15A-to FIG. 15C depict the kinetic analysis of minibody binding to sCD8αβ antigen using SPR Biacore 3000. […] Soluble monovalent antigen was then flowed over the chip at 100 (green), 50 (magenta), 25 (red), 12.5 (dark blue), 6.25 (light blue), and 0 (black) nM.
(§1) Surface Plasmon Resonance (SPR) analysis was performed on a Biacore 3000 (Precision Antibody, Inc.). Briefly, Mbs were captured using goat anti-mouse IgG Fc and sCD8αβ antigen was flowed over the chip at 100, 50, 25, 12.5, 6.25 and 0 nM. The equilibrium constant (KD) was calculated from the observed on (kₐ) and off (kd) rates.

[2] = molecular target: T1, soluble CD8αβ heterodimer fusion protein; assay: SPR, Biacore 3000; minibody captured by goat anti-mouse IgG Fc, soluble monomeric sCD8αβ flowed at 0-100 nM
Protocol: as §1
SPR kinetic analysis was performed using the Biacore 3000 with immobilized minibody and soluble monomeric sCD8αβ.

[3] = molecular target: T2, mouse CD8α, Lyt2.1 allele (mouse, UniProt P01731 28-247); assay: statement in Example 5; supported there only by in vivo immunoPET and biodistribution in C3H mice
T2 construct: Position 78 is counted on mature CD8a, not on the precursor; On the cells it is paired with CD8β (TK-1 is Lyt2.1+, Lyt3+); also called CD8a Lyt2.1; CD8-Lyt2.1
T2 sequence (P01731 28-247 M105V limits assumed): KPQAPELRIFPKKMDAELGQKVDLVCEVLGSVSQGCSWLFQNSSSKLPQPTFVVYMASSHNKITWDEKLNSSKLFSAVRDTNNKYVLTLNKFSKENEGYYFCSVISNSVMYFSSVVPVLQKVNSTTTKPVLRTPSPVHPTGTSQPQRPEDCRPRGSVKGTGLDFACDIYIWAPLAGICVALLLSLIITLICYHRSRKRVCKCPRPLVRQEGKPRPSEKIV

[4] = molecular target: T3, mouse CD8α, Lyt2.2 allele (mouse, UniProt P01731 28-247); assay: statement in Example 5; supported there only by in vivo immunoPET and biodistribution in C57Bl/6 mice
T3 construct: On the cells it is paired with CD8β (BW58 is Lyt2.2+, Lyt3+); also called CD8a Lyt2.2; CD8-Lyt2.2
T3 sequence (P01731 28-247 limits assumed): as the sequence (P01731 28-247 M105V limits assumed) above, with V78M counted along it

T1 sequence (P10300 other isoform, or with tags, fused parts or gaps): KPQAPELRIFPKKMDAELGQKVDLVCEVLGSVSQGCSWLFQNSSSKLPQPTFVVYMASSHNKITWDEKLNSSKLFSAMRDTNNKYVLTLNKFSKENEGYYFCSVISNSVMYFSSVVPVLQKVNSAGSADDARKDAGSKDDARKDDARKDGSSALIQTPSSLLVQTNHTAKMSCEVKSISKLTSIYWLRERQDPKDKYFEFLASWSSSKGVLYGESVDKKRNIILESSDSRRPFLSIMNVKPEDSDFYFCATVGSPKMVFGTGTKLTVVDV

Ka [1] [M⁻¹] | koff [1] [s⁻¹] | kon [1] [M⁻¹ s⁻¹] | Kd [2] [nM] | binding result [3] | binding result [4] | Binder
3e+07 | 0.0076 | 230000 | 33 |  |  | anti-mCD8 YTS 169 minibody (other, Minibody (scFv-hinge-CH3 homodimer); also called YTS169 Mb) scFv: EVKLQESGGGLVQPGRSLKLSCAASGFNFNDYWMGWVRQAPGKGLEWIGEINKDSSTINYTPSLKDKFTISRDNAQNTLYLQMSKLGSEDTAIYYCARARGMMVLIIPHYFDYWGQGVMVTVSSGSTSGGGSGGGSGGGGSSDIVLTQSPAMAMSPGERITISCRASESVSTRMHWYQQKPGQQPKLLIYGASNLESGVPARFSGSGSGTDFTLTIDPVEANDTATYFCQQSWYDPWTFGGGTKLELKLEPRGPTIKPCPPCKCPAPNLLGGPGSVRAPQVYVLPPPEEEMTKKQVTLTCMVTDFMPEDIYVEWTNNGKTELNYKNTEPVLDSDGSYFMYSKLRVEKKNWVERNSYSCSVVHEGLHNYHTTKSFSRTPGKAAAAGHLPETGAGHHHHHHAAA
 |  |  |  | no binding | binds | anti-mCD8 2.43 Cys-diabody (other, Cys-diabody (scFv dimer, about 51 kDa)) scFv: EVQLVESGGGLVQPGRSLKLSCAASGFTFSNYYMAWVRQAPTKGLEWVAYINTGGGTTYYRDSVKGRFTISRDDAKSTLYLQMDSLRSEDTATYYCTTAIGYYFDYWGQGVMVTVSSGGGGSDIQLTQSPASLSASLGETVSIECLASEDIYSYLAWYQQKPGKSPQVLIYAANRLQDGVPSRFSGSGSGTQYSLKISGMQPEDEGDYFCLQGSKFPYTFGAGTKLELKAAAGCGGHHHHHH
3e+07 | 0.0041 | 120000 | 34 |  |  | anti-mCD8 2.43 minibody (other, Minibody (scFv-hinge-CH3 homodimer, about 80 kDa; 19% higher multimers); Some assays used the NOTA/64Cu-labelled or FITC-labelled protein) scFv: EVQLVESGGGLVQPGRSLKLSCAASGFTFSNYYMAWVRQAPTKGLEWVAYINTGGGTTYYRDSVKGRFTISRDDAKSTLYLQMDSLRSEDTATYYCTTAIGYYFDYWGQGVMVTVSSGSTSGGGSGGGSGGGGSSDIQLTQSPASLSASLGETVSIECLASEDIYSYLAWYQQKPGKSPQVLIYAANRLQDGVPSRFSGSGSGTQYSLKISGMQPEDEGDYFCLQGSKFPYTFGAGTKLELKLEPRGPTIKPCPPCKCPAPNLLGGPGSVRAPQVYVLPPPEEEMTKKQVTLTCMVTDFMPEDIYVEWTNNGKTELNYKNTEPVLDSDGSYFMYSKLRVEKKNWVERNSYSCSVVHEGLHNYHTTKSFSRTPGKAAAAGHLPETGAGHHHHHHAAA
